Here are results for six substances from article doi:10.1101/2025.10.24.684422.

Assay [1] addresses HAESA-LIKE 3 (HSL3) ectodomain, wild type (Arabidopsis thaliana). Put plainly: ITC. (In ITC the heat of successive injections is recorded.)
For assay [2], the target named is HSL3 ectodomain Gln120Ala (Arabidopsis thaliana). In words: ITC.

In the case of CTNIP4(47-70)_(Cys-Cys) (peptide), the fold reduction in binding against CTNIP4(46-70) (Cys-Cys) in assay [1] worked out at 4 fold.

Substance CTNIP4^C58A.C68A(46-70) (peptide) registered a fold impairment of binding against CTNIP4(46-70) (Cys-Cys) in assay [1] of 200 fold.

For CTNIP4^C58A(46-63) (peptide), the fold reduction in binding affinity against CTNIP4(46-70) (Cys-Cys) in assay [1] was determined as 200 fold.

Substance CTNIP4^I61Y (peptide) returned a fold reduction in binding affinity against CTNIP4(46-70) (Cys-Cys) in assay [1] of 120 fold.

CTNIP4(48-70)_(Cys-Cys) (peptide) showed a fold loss of affinity against CTNIP4(46-70) (Cys-Cys) in assay [1] of 200 fold.

Consider CTNIP4(46-70)_(Cys-Cys) (peptide), for which the fold reduction in binding affinity against wild-type HSL3 in assay [2] is 60 fold.
